Reference: article PMC7118173 (Nature Communications, 2020)

What was measured:
[1] = tested on: SepF; assay: SepF polymerization (turbidity) assay in the presence of SUVs; format: biochemical, C. glutamicum; conditions: SepF (or mutant) plus SUVs 50 µM each, pH 6.9, 25 °C
Method: When used, FtsZCTD was added at a final concentration of 100 μM.
Reverse phase evaporation was used to prepare small unilamellar vesicles (SUVs). A 10 mM lipid solution made of an 8:2 mixture of 1-palmitoyl-2-oleoyl phosphatidylcholine (POPC) and 1-palmitoyl-2-oleoylglycero-3-phosphoglycerol (POPG) (Avanti Polar Lipids) was prepared as described. Chloroform was removed by evaporation under vacuum conditions and the dried phospholipid film was resuspended in a mixture of diethyl ether and buffer (25 mM Hepes pH 7.4, 10 mM MgCl2 and 150 mM KCl). Diethyl ether was eliminated by reverse phase evaporation and by slowly decreasing the pressure to the vacuum. SUVs were obtained by sonication during 30 min at 4 °C. The diameter and charge of SUV were determined by measuring dynamic light scattering (DLS) and electrophoretic mobility profiles on a Zetasizer Nano instrument (Malvern Instruments).

[2] = tested on: FtsZ and SUVs; assay: Cryo-EM of ternary complex FtsZ-GTP + SepF + SUVs; format: biochemical, C. glutamicum; conditions: 100 μM SUVs, 10 μM SepF, 10 μM FtsZ, 3 mM GTP
Method: 5 µl of sample were deposited onto glow-discharged lacey carbon copper grids (Ted Pella) and plunge-frozen in liquid ethane using a Leica EM-CPC. Cryo-EM data acquisition was performed on a JEOL 2200FS (Jeol, Japan) 200 kV cryo-electron microscope equipped with an Omega in-column energy filter. High magnification (30,000×, corresponding pixel size 0.32 nm) zero-loss (slit: 20 eV) images were collected at nominal defocus between 1 and 4 µm depending on the experiment on a Gatan USC1000 slow scan CCD camera.

[3] = tested on: SepF; assay: Western blots of whole-cell extracts (SepF depletion / expression); format: cell-based, C. glutamicum; conditions: SepF under Ptac, WT
Method: 24 homogenizer. Crude extracts (120 μg) were analyzed by SDS-PAGE, electro-transferred onto a 0.2 μm Nitrocellulose membrane and blocked with 5% (w/v) skimmed milk. Membranes were incubated with an anti-SepF antibody (produced by Covalab, Supplementary Fig. 25a), an anti-FtsZ antibody (produced by Proteogenix, Supplementary Fig. 25b) or an anti-mNeonGreen antibody (purchased from Chromotek) for 1 h at room temperature.

[4] = tested on: FtsZ
[5] = Dynamic light scattering; format: physicochemical; conditions: SUVs + SepF 50 µM each, pH 6.9, 25 °C
Method: Polydispersity of the samples was measured using Dyna-pro Plate Reader (Wyatt technology) equipped with an 830 nm laser and a temperature control module. The Dynamics software (version 7.9) was used to schedule data acquisition and data analysis. For each well, 20 measurements of 10 s were averaged and this operation was repeated 20 times for each condition at 25 °C. For samples containing FtsZCTD, the peptide was used at a final concentration of 100 µM. All the experiments were carried out as minimum three biological and technical replicates.

[6] = tested on: FtsZ; remark: listed apart in the source
Method: After, 100 µl of the mixture were place in a 96-well-plate that contained GTP at 2 mM final concentration. Reactions were incubated at room temperature for 10 min and 100 µl of the developing reagent was added. The mixture was incubated at room temperature for 25 min to allow development of the green color and absorbance was measured at 620 nm using a Varioskan™ LUX (Thermo Fisher Scientific). Reactions were performed in triplicate for each condition.

[7] = Negative stain EM of SepF rings; format: physicochemical
Method: For all samples, 400 mesh carbon coated grids (Electron Microscopy Sciences; CF 400-Cu) were glow-discharged on an ELMO system for 30 sec at 2 mA. 5 µl samples were applied onto the grids and incubated for 30 s, the sample was blotted, washed in 3 drops of water and then stained with 2% (weight/vol) uranyl acetate. Images were recorded on a Gatan UltraScan4000 charged coupled device (CCD) camera (Gatan) on a Tecnai T12 BioTWINLaB6 electron microscope operating at a voltage of 120 kV.

[8] = tested on: C. glutamicum ATCC13032 whole-cell extracts; assay: SepF and FtsZ quantification by Western blot; format: cell-based, Corynebacterium glutamicum; conditions: 60 ugr loaded
[9] = tested on: WT C. glutamicum; assay: Number of ring-like structures per cell, overexpression in WT; format: cell-based, Corynebacterium glutamicum; conditions: for ring-like structures per cell: overexpression in WT background
[10] = tested on: FtsZ; conditions: 400 nm, 25 °C, 600 s, 100 mM KCl, 10 mM MgCl2, 25 mM Pipes pH 6.9, 15 µM proteins, GTP
Method: The mixture was placed into a quartz cuvette with a light path of 10 mm or a 96-well plate and 0.5−2 mM GTP or GMPCPP were added to the reaction mixture. Data acquisition started immediately using an UV–Visible Spectrophotometer (Thermo scientific Evolution 220) during 600 s at 25 °C using 400 nm for excitation and emission and spectra with slits widths of 1 nm or a Varioskan™ LUX plate reader (Thermo Fisher Scientific) with an excitation of 400 nm. Experiments were done in triplicates and measurements were taken every 15 s during 600 s and keeping a constant temperature of 25 °C.

[11] = Negative stain EM of SUVs with SepF; format: biochemical; conditions: end-point of SepF + SUVs reaction, 50 μM
[12] = tested on: Pino-sepF strain; assay: Growth curves / complementation of the Pino-sepF strain; conditions: SepF depletion with 1% myo-inositol, exogenous construct induced
Method: Positive colonies were grown in BHI media supplemented with 25 µg/ml kanamycin overnight at 30 °C and 120 rpm shaking.
All strains were plated in CGXII media plates with 4% (w/v) sucrose as a carbon source for 2 days at 30 °C and then single colonies were inoculated in 10 ml of CGXII media 4% (w/v) sucrose overnight at 30 °C and 120 rpm shaking. The next day, 20 ml of CGXII media supplemented with the appropriate repressor or inducer were inoculated with the overnight cultures to a starting OD600 of 1. OD600 measurements were taken every 1.5 h. Each growth curve represents the average of three different growth curves originally from three different single colonies. […] When required, CGXII media 4% (w/v) sucrose was supplemented with either 1% (w/v) myo-inositol, 50 ng/ml tetracycline or 1% (w/v) gluconate and 25 μg/ml kanamycin.

[13] = tested on: Pino-sepF strain; assay: Scarlet fluorescence localization in the Pino-sepF strain; format: cell-based, Corynebacterium glutamicum; conditions: 1% myo-inositol plus 1% gluconate
Method: For imaging, cultures of C. glutamicum were grown in BHI or minimal medium CGXII during the day, and washed and inoculated into CGXII media for overnight growth. The following day cultures were diluted to OD600 = 1 and grown to the required OD (early exponential phase) for imaging. For HADA labeling, cultures were incubated with 0.5 mM HADA for 20 min at 30 °C in the dark. Two percent agarose pads were prepared with the corresponding growth medium and cells were visualized using a Zeiss Axio Observer Z1 microscope fitted with an Orca Flash 4 V2 sCMOS camera (Hamamatsu), and a Pln-Apo 63×/1.4 oil Ph3 objective. Images were collected using Zen Blue 2.6 (Zeiss) and analyzed using the software Fiji[70] and the plugin MicrobeJ[71] to generate violin plots and fluorescent intensity heatmaps. Statistical analyses of cell lengths are summarized in Supplementary Tables 5 and 6. The experiments were performed as biological triplicates. Some autofluorescence is observed for wild-type C. glutamicum as shown in Supplementary Fig. 24.

[14] = tested on: FtsZ; conditions: immunoprecipitation coupled to crosslinking; unpaired t-test p 0.004
Method: Cells were harvested, washed, and normalized by resuspending cell pellets in PBS-T (1X PBS, 0.1% v/v Tween-80) to give a final OD600 of 3. The cell suspensions were cross-linked with 0.25% v/v of formaldehyde for 20 min at 30 °C with gentle agitation. The crosslinking reaction was stopped by adding 1.25 M glycine and incubated for 5 min at room temperature. Cells were resuspended in 50 mM Bis-Tris pH 7.4, 75 mM aminocaproic acid, 1 mM MgSO4, 1× Benzonase, 1× Complete Protease inhibitors cocktail (ROCHE) and disrupted at 4 °C with 0.1 mm glass beads and using a [sequence] 24 homogenizer. After lysis, 0.1% n-Dodecyl-β-D-Maltopyranoside was added and the total extract was incubated for 1 h at 4 °C. Cell lysates were centrifuged at 4 °C for 10 min at 14,000 rpm and the soluble fraction was collected and protein levels quantified.
Detergent-solubilized protein extracts were incubated with 50 μl of magnetic beads cross-linked with 10 μg of purified anti-Scarlet antibody (produced by Covalab). […] Tryptic peptides from three replicates of each condition were analyzed using a nano-HPLC (Ultimate 3000, Thermo) coupled to a hybrid quadrupole-orbitrap mass spectrometer (Q-Exactive Plus, Thermo). […]
Patternlab for proteomics was used for label-free quantitation analyses using extracted ion chromatogram (XIC).

[15] = tested on: Pino-sepF strain; assay: Cell length distribution (violin plots), Pino-sepF strains; format: cell-based, Corynebacterium glutamicum; conditions: 1% myo-inositol + 1% gluconate, t = 6, replicate 1, listed as PgntK_SepF(K125R/F131A)_Scarlet
Method: For imaging, cultures of C. glutamicum were grown in BHI or minimal medium CGXII during the day, and washed and inoculated into CGXII media for overnight growth. The following day cultures were diluted to OD600 = 1 and grown to the required OD (early exponential phase) for imaging. For HADA labeling, cultures were incubated with 0.5 mM HADA for 20 min at 30 °C in the dark. Two percent agarose pads were prepared with the corresponding growth medium and cells were visualized using a Zeiss Axio Observer Z1 microscope fitted with an Orca Flash 4 V2 sCMOS camera (Hamamatsu), and a Pln-Apo 63×/1.4 oil Ph3 objective. Images were collected using Zen Blue 2.6 (Zeiss) and analyzed using the software Fiji[70] and the plugin MicrobeJ[71] to generate violin plots and fluorescent intensity heatmaps. […] The experiments were performed as biological triplicates.

B1: SepF: C. glutamicum SepF (cg2363), full-length (protein)
chain: MSMLKKTKEFFGLAPYEAEHEDAYYADEPRYEGTAAYAPEYRERDYGYAPEAPAPVAPSPAPRSYQSTIVPVELHSFEDAQVIGGAFRDGDAVVFDMSLLSREEARRIVDFAAGLCFALRGKMQKIDSVTFAVVPELSNISTSELERAARIR
modifications: left off: His6, N-terminal, cleaved | SUMO, N-terminal, cleaved
Q: Which “polymerization with SUVs (turbidity)” value [1] does the source give for B1 here?
A: The value was “SepF concentration-dependent polymerization”.

Q: And the “lipid binding in ternary complex” value [2]?
A: The value was “dimeric form of SepF retains lipid-binding capability”.

Q: And the “protein overexpression upon induction” value [3]?
A: Its value is ~ 30 fold.

Q: And the “FtsZ filament morphology by EM” value [4]?
A: Its value is “thick bundles of FtsZ protofilaments, as well as highly curved filaments”.

Q: And the “particle size by DLS” value [5]?
A: Its value is “formation of large structures”.

Q: And the “effect on GTPase activity of FtsZ” value ([6]; 15 µM SepF and FtsZ, F test p=0.5872)?
A: The value was “did not significantly affect the GTPase activity of FtsZ”.

Q: What about the “GTPase activity (phosphate release), mean” value ([6]; 15 µM each, 2 mM GTP, pH 6.9, room temperature, 10 min, mean, n = 11) of the same molecule?
A: Its value is 0.09 nmol.

Q: What about the “ring-like structures by EM” value [7] of the same molecule?
A: Its value is “unsuccessful”.

Q: What about the “band volume in whole-cell extract” value ([8]; ON S (over-night, sucrose)) of the same molecule?
A: The value was 455544.

Q: And the “band volume in whole-cell extract” value ([8]; ON S+G (over-night, sucrose + gluconate))?
A: The value was 420204.

Q: What about the “band volume in whole-cell extract” value ([8]; T6 S (6 h, sucrose)) of the same molecule?
A: The value was 522995.

Q: And the “band volume in whole-cell extract” value ([8]; T6 S+G (6 h, sucrose + gluconate))?
A: The value was 618345.

Q: What about the “ring-like structures per cell” value [9] of the same molecule?
A: The value was “multiple-rings phenotype is not observed”.

Q: What about the “effect on FtsZ polymerization / bundling” value [10] of the same molecule?
A: Its value is “strong FtsZ bundling effect”.

Q: What about the “vesicle morphology by EM” value [11] of the same molecule?
A: Its value is “lipid vesicles were tubulated”.

Q: What about the “complementation of SepF depletion (growth)” value [12] of the same molecule?
A: Its value is “rescued”.

B2: SepFK125E/F131A-Scarlet: Scarlet-tagged SepF impaired for FtsZ binding (protein)
chain: MSMLKKTKEFFGLAPYEAEHEDAYYADEPRYEGTAAYAPEYRERDYGYAPEAPAPVAPSPAPRSYQSTIVPVELHSFEDAQVIGGAFRDGDAVVFDMSLLSREEARRIVDFAAGLCFALRGKMQEIDSVTAAVVPELSNISTSELERAARIR
modifications: left off: mScarlet-I, C-terminal, kept
Q: What does the source list for B2?
A: localization of Scarlet construct [13]: diffuse in the cytoplasm; fold reduction of FtsZ binding (normalized FtsZ) versus SepF-Scarlet [14]: 7.2 fold; frequency of cells with n septa (ring-like structures) ([9]; n septa 0, replicate 1): 0.122; frequency of cells with n septa (ring-like structures) ([9]; n septa 0, replicate 2): 0.074; frequency of cells with n septa (ring-like structures) ([9]; n septa 0, replicate 3): 0.099; frequency of cells with n septa (ring-like structures) ([9]; n septa 1, replicate 1): 0.227; frequency of cells with n septa (ring-like structures) ([9]; n septa 1, replicate 2): 0.25; frequency of cells with n septa (ring-like structures) ([9]; n septa 1, replicate 3): 0.189; frequency of cells with n septa (ring-like structures) ([9]; n septa 2, replicate 1): 0.246; frequency of cells with n septa (ring-like structures) ([9]; n septa 2, replicate 2): 0.193; frequency of cells with n septa (ring-like structures) ([9]; n septa 2, replicate 3): 0.186; frequency of cells with n septa (ring-like structures) ([9]; n septa 3, replicate 1): 0.241; frequency of cells with n septa (ring-like structures) ([9]; n septa 3, replicate 2): 0.22; frequency of cells with n septa (ring-like structures) ([9]; n septa 3, replicate 3): 0.232; frequency of cells with n septa (ring-like structures) ([9]; n septa 4, replicate 1): 0.102; frequency of cells with n septa (ring-like structures) ([9]; n septa 4, replicate 2): 0.152; frequency of cells with n septa (ring-like structures) ([9]; n septa 4, replicate 3): 0.133; frequency of cells with n septa (ring-like structures) ([9]; n septa 5, replicate 1): 0.042; frequency of cells with n septa (ring-like structures) ([9]; n septa 5, replicate 2): 0.077; frequency of cells with n septa (ring-like structures) ([9]; n septa 5, replicate 3): 0.11; frequency of cells with n septa (ring-like structures) ([9]; n septa 6, replicate 1): 0.014; frequency of cells with n septa (ring-like structures) ([9]; n septa 6, replicate 2): 0.03; frequency of cells with n septa (ring-like structures) ([9]; n septa 6, replicate 3): 0.033; frequency of cells with n septa (ring-like structures) ([9]; n septa 7, replicate 1): 0.006; frequency of cells with n septa (ring-like structures) ([9]; n septa 7, replicate 2): 0.003; frequency of cells with n septa (ring-like structures) ([9]; n septa 7, replicate 3): 0.015; ring-like structures per cell [9]: net increase in the number of ring-like structures per cell; complementation of SepF depletion (growth) [12]: completely failed to complement; mean cell length [15]: 9.96
